Laboratory results from patent US20160176928A1 (Bristol-Myers Squibb, published 2016).

Target: T1, Recombinant Human PD-L1-TVMV-His, hPDL1(19-239)-TVMV-His (human, UniProt Q9NZQ7 19-239)
T1 construct: also called PD-L1-His; soluble PD-L1
Assay: HTRF competition of PD-1-Ig binding to PD-L1-His; grade, legend paragraph 524: A=0.10-10 µM
Experimental: Homogenous Time-Resolved Fluorescence (HTRF) Assays of Binding of Soluble PD-1 to Soluble PD-L1. Soluble PD-1 and soluble PD-L1 refers to proteins with carboxyl-end truncations that remove the transmembrane-spanning regions and are fused to heterologous sequences, specifically the Fc portion of the human immunoglobuling G sequence (Ig) or the hexahistidine epitope tag (His). All binding studies were performed in an HTRF assay buffer consisting of dPBS supplemented with 0.1% (w/v) bovine serum albumin and 0.05% (v/v) Tween-20. For the PD-1-Ig/PD-L1-His binding assay, inhibitors were pre-incubated with PD-L1-His (10 nM final) for 15 m in 4 μl of assay buffer, followed by addition of PD-1-Ig (20 nM final) in 1 μl of assay buffer and further incubation for 15m. PD-L1 fusion proteins from either human, cynomologous macaques, mouse, or other species were used. HTRF detection was achieved using europium crypate-labeled anti-Ig monoclonal antibody (1 nM final) and allophycocyanin (APC) labeled anti-His monoclonal antibody (20 nM final). Antibodies were diluted in HTRF detection buffer and 5 μl was dispensed on top of binding reaction. The reaction was allowed to equilibrate for 30 minutes and signal (665 nm/620 nm ratio) was obtained using an EnVision fluorometer. […]

T1 sequence (Q9NZQ7 other isoform, or with tags, fused parts or gaps limits assumed): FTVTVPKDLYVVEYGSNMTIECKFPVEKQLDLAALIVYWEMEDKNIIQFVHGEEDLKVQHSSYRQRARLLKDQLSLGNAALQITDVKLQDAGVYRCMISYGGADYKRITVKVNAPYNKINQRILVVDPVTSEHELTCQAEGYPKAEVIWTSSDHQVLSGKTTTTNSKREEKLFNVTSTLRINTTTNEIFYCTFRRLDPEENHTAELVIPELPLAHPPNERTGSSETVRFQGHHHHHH

IC50: 0.1 to 10 µM
B1: Example 1001 (peptide)
peptide: FANPHLXWSWXXRCG
modifications: not fully specified; N-terminal acetyl group (from chloroacetyl capping) joined as a thioether to the side chain of Cys 14 (macrocycle); N-methyl-Ala at 2; X at 7 = residue from 'Fmoc-Cyclopenty-Gly-OH'; X at 11 and 12 = N-methyl-norleucine; C-terminal amide (Rink resin)
notes: the structure itself is only a drawing (CHEM-US-00006)
